# Measurements reported in patent US12679878B2, “CRF2 receptor agonists and their use in therapy” (SANOFI, priority 2020, dated 2026).
# Starred links: 1 amine or outer side, 2 acyl side, 3 side chain; linkers in the order of their positions; H or OH if unused. Groups on a side chain read outwards from the residue. No end group written: not given here. *: point of attachment. C18 diacid = O=C(O)CCCCCCCCCCCCCCCCC(=O)*; γGlu = O=C(O)[C@H](CCC(=O)[*:2])N[*:1]; Palmitoyl = CCCCCCCCCCCCCCCC(=O)*; AEEA = NCCOCCOCC(=O)O
# B1: SEQ ID NO: 35 (peptide)
# peptide: IVLSLDVPIKLK([AEEA-AEEA-γGlu-C18 diacid])KILLEQEKQKKQREQAETNKQILAQV-NH2
# modifications: N-terminus assumed
# SMILES: CC[C@H](C)[C@H](N)C(=O)N[C@H](C(=O)N[C@@H](CC(C)C)C(=O)N[C@@H](CO)C(=O)N[C@@H](CC(C)C)C(=O)N[C@@H](CC(=O)O)C(=O)N[C@H](C(=O)N1CCC[C@H]1C(=O)N[C@H](C(=O)N[C@@H](CCCCN)C(=O)N[C@@H](CC(C)C)C(=O)N[C@@H](CCCCNC(=O)COCCOCCNC(=O)COCCOCCNC(=O)CC[C@H](NC(=O)CCCCCCCCCCCCCCCCC(=O)O)C(=O)O)C(=O)N[C@@H](CCCCN)C(=O)N[C@H](C(=O)N[C@@H](CC(C)C)C(=O)N[C@@H](CC(C)C)C(=O)N[C@@H](CCC(=O)O)C(=O)N[C@@H](CCC(N)=O)C(=O)N[C@@H](CCC(=O)O)C(=O)N[C@@H](CCCCN)C(=O)N[C@@H](CCC(N)=O)C(=O)N[C@@H](CCCCN)C(=O)N[C@@H](CCCCN)C(=O)N[C@@H](CCC(N)=O)C(=O)N[C@@H](CCCNC(=N)N)C(=O)N[C@@H](CCC(=O)O)C(=O)N[C@@H](CCC(N)=O)C(=O)N[C@@H](C)C(=O)N[C@@H](CCC(=O)O)C(=O)N[C@H](C(=O)N[C@@H](CC(N)=O)C(=O)N[C@@H](CCCCN)C(=O)N[C@@H](CCC(N)=O)C(=O)N[C@H](C(=O)N[C@@H](CC(C)C)C(=O)N[C@@H](C)C(=O)N[C@@H](CCC(N)=O)C(=O)N[C@H](C(N)=O)C(C)C)[C@@H](C)CC)[C@@H](C)O)[C@@H](C)CC)[C@@H](C)CC)C(C)C)C(C)C
# B2: SEQ ID NO: 1 (peptide)
# peptide: IVLSLDVPIGLK([γGlu-Palmitoyl])QILLEQEKQEKEKQQAETNAQILAQV-NH2
# modifications: N-terminus assumed
# SMILES: CCCCCCCCCCCCCCCC(=O)N[C@@H](CCC(=O)NCCCC[C@H](NC(=O)[C@H](CC(C)C)NC(=O)CNC(=O)[C@@H](NC(=O)[C@@H]1CCCN1C(=O)[C@@H](NC(=O)[C@H](CC(=O)O)NC(=O)[C@H](CC(C)C)NC(=O)[C@H](CO)NC(=O)[C@H](CC(C)C)NC(=O)[C@@H](NC(=O)[C@@H](N)[C@@H](C)CC)C(C)C)C(C)C)[C@@H](C)CC)C(=O)N[C@@H](CCC(N)=O)C(=O)N[C@H](C(=O)N[C@@H](CC(C)C)C(=O)N[C@@H](CC(C)C)C(=O)N[C@@H](CCC(=O)O)C(=O)N[C@@H](CCC(N)=O)C(=O)N[C@@H](CCC(=O)O)C(=O)N[C@@H](CCCCN)C(=O)N[C@@H](CCC(N)=O)C(=O)N[C@@H](CCC(=O)O)C(=O)N[C@@H](CCCCN)C(=O)N[C@@H](CCC(=O)O)C(=O)N[C@@H](CCCCN)C(=O)N[C@@H](CCC(N)=O)C(=O)N[C@@H](CCC(N)=O)C(=O)N[C@@H](C)C(=O)N[C@@H](CCC(=O)O)C(=O)N[C@H](C(=O)N[C@@H](CC(N)=O)C(=O)N[C@@H](C)C(=O)N[C@@H](CCC(N)=O)C(=O)N[C@H](C(=O)N[C@@H](CC(C)C)C(=O)N[C@@H](C)C(=O)N[C@@H](CCC(N)=O)C(=O)N[C@H](C(N)=O)C(C)C)[C@@H](C)CC)[C@@H](C)O)[C@@H](C)CC)C(=O)O
# Target: human corticotropin-releasing factor 2α (CRF2 α receptor) (human), Q13324
# Sequence (Q13324 20-411): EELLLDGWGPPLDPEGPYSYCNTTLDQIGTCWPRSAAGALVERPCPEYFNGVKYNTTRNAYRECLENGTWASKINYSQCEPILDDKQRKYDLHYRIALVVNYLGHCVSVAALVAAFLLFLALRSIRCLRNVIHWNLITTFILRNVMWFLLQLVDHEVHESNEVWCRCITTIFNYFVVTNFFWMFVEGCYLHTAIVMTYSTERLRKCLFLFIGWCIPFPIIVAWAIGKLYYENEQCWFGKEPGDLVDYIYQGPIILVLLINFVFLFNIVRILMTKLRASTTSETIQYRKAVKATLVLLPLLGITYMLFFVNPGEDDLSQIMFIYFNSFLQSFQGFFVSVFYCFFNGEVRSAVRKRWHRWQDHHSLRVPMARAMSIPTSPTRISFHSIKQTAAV
# Assay: cell-based or functional assay
Binder,"EC50 [nM], 0% HSA [nM]","EC50 [nM], 0.1% HSA [nM]"
B1,0.24,3.82
B2,0.01,–
